Results from patent US20180339017A1 (Merck Sharp & Dohme, published 2018).
Read-outs that look alike come from different tables or passages of the source. Starred links: 1 amine or outer side, 2 acyl side, 3 side chain; linkers in the order of their positions; H or OH if unused. Non-standard residues stand in square brackets, D forms with d. Groups on a side chain read outwards from the residue. No end group written: not given here. *: point of attachment. γGlu = O=C(O)[C@H](CCC(=O)[*:2])N[*:1]; Palmitoyl = CCCCCCCCCCCCCCCC(=O)*

Assays:
Assay in all cases: cell-based or functional assay
human glucagon receptor [1] = molecular target: T1, human glucagon receptor (human, UniProt P47871 26-477)
T1 sequence (P47871 26-477): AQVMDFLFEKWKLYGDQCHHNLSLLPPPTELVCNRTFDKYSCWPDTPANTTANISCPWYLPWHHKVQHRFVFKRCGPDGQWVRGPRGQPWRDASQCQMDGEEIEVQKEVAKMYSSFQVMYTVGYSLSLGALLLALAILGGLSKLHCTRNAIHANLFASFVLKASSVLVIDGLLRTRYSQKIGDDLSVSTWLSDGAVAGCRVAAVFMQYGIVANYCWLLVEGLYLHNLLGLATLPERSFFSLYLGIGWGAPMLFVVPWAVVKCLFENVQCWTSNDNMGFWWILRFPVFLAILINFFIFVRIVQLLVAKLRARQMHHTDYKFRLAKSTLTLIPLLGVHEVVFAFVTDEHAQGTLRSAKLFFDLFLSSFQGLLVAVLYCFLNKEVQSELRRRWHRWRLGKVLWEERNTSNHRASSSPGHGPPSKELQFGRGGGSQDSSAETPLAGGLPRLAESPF

human GLP-1 receptor [2] = molecular target: T2, human GLP-1 receptor (human, UniProt P43220 24-463)
human glucagon receptor [3] = molecular target: T1, human glucagon receptor; remark: listed apart in the source
human GLP-1 receptor [4] = molecular target: T2, human GLP-1 receptor; remark: listed apart in the source

B1: TP535 (peptide)
peptide: H[dS]QGTFTSDK([γGlu-γGlu-Palmitoyl])SKYLDSRRAHDFVQWLLNT-NH2
modifications: N-terminus assumed
SMILES: CCCCCCCCCCCCCCCC(=O)N[C@@H](CCC(=O)N[C@@H](CCC(=O)NCCCC[C@H](NC(=O)[C@H](CC(=O)O)NC(=O)[C@H](CO)NC(=O)[C@@H](NC(=O)[C@H](Cc1ccccc1)NC(=O)[C@@H](NC(=O)CNC(=O)[C@H](CCC(N)=O)NC(=O)[C@@H](CO)NC(=O)[C@@H](N)Cc1c[nH]cn1)[C@@H](C)O)[C@@H](C)O)C(=O)N[C@@H](CO)C(=O)N[C@@H](CCCCN)C(=O)N[C@@H](Cc1ccc(O)cc1)C(=O)N[C@@H](CC(C)C)C(=O)N[C@@H](CC(=O)O)C(=O)N[C@@H](CO)C(=O)N[C@@H](CCCNC(=N)N)C(=O)N[C@@H](CCCNC(=N)N)C(=O)N[C@@H](C)C(=O)N[C@@H](Cc1c[nH]cn1)C(=O)N[C@@H](CC(=O)O)C(=O)N[C@@H](Cc1ccccc1)C(=O)N[C@H](C(=O)N[C@@H](CCC(N)=O)C(=O)N[C@@H](Cc1c[nH]c2ccccc12)C(=O)N[C@@H](CC(C)C)C(=O)N[C@@H](CC(C)C)C(=O)N[C@@H](CC(N)=O)C(=O)N[C@H](C(N)=O)[C@@H](C)O)C(C)C)C(=O)O)C(=O)O
EC50 hGCGR (cAMP activity assay) (human glucagon receptor [1]): 20 pM
EC50 hGLP1 (cAMP activity assay) (human GLP-1 receptor [2]): 50 pM

HSQGTFTSDYSKYLDSRRAQDFVQWLLNQ-NH2 [PD57]
EC50 hGCGR (cAMP activity assay) (human glucagon receptor [3]): 20 pM
EC50 hGLP1R (cAMP activity assay) (human GLP-1 receptor [4]): 10 pM

HSQGTFTSDYSKYLDSRMAYDFVQWLMNT-NH2 [PD56]
EC50 hGCGR (cAMP activity assay) (human glucagon receptor [3]): 80 pM
EC50 hGLP1R (cAMP activity assay) (human GLP-1 receptor [4]): 50 pM

HSQGTFTSDYSKYLDMQRAHDFVQWLMNT-NH2 [PD55]
EC50 hGCGR (cAMP activity assay) (human glucagon receptor [3]): 10 pM
EC50 hGLP1R (cAMP activity assay) (human GLP-1 receptor [4]): 10 pM

HSQGTFTSDYSKYLDSRRAQDFVQWLINY-NH2 [PD31]
EC50 hGCGR (cAMP activity assay) (human glucagon receptor [3]): 60 pM
EC50 hGLP1R (cAMP activity assay) (human GLP-1 receptor [4]): 40 pM

HSQGIFFSDYSKYLDSRRAQDFVQWLMNT-NH2 [PD52]
EC50 hGCGR (cAMP activity assay) (human glucagon receptor [3]): 30 pM
EC50 hGLP1R (cAMP activity assay) (human GLP-1 receptor [4]): 20 pM

HSQGTFTSDYSKYLDSRRAQDFVDWLINS-NH2 [PD50]
EC50 hGCGR (cAMP activity assay) (human glucagon receptor [3]): 20 pM
EC50 hGLP1R (cAMP activity assay) (human GLP-1 receptor [4]): 10 pM

HSQGTFTSDYSKYLDSKRAHDFVQWLLNT-NH2 [PD45]
EC50 hGCGR (cAMP activity assay) (human glucagon receptor [3]): 30 pM
EC50 hGLP1R (cAMP activity assay) (human GLP-1 receptor [4]): 20 pM

HSQGTFTSDYSKYLDARRAQDFVQWLIRT-NH2 [PD25]
EC50 hGCGR (cAMP activity assay) (human glucagon receptor [3]): 40 pM
EC50 hGLP1R (cAMP activity assay) (human GLP-1 receptor [4]): 20 pM

B2: TP536 (peptide)
peptide: H[dS]QGTFLSDK([γGlu-γGlu-Palmitoyl])SKLLDSRRAQDFVQWLMQT-NH2
modifications: N-terminus assumed
SMILES: CCCCCCCCCCCCCCCC(=O)N[C@@H](CCC(=O)N[C@@H](CCC(=O)NCCCC[C@H](NC(=O)[C@H](CC(=O)O)NC(=O)[C@H](CO)NC(=O)[C@H](CC(C)C)NC(=O)[C@H](Cc1ccccc1)NC(=O)[C@@H](NC(=O)CNC(=O)[C@H](CCC(N)=O)NC(=O)[C@@H](CO)NC(=O)[C@@H](N)Cc1c[nH]cn1)[C@@H](C)O)C(=O)N[C@@H](CO)C(=O)N[C@@H](CCCCN)C(=O)N[C@@H](CC(C)C)C(=O)N[C@@H](CC(C)C)C(=O)N[C@@H](CC(=O)O)C(=O)N[C@@H](CO)C(=O)N[C@@H](CCCNC(=N)N)C(=O)N[C@@H](CCCNC(=N)N)C(=O)N[C@@H](C)C(=O)N[C@@H](CCC(N)=O)C(=O)N[C@@H](CC(=O)O)C(=O)N[C@@H](Cc1ccccc1)C(=O)N[C@H](C(=O)N[C@@H](CCC(N)=O)C(=O)N[C@@H](Cc1c[nH]c2ccccc12)C(=O)N[C@@H](CC(C)C)C(=O)N[C@@H](CCSC)C(=O)N[C@@H](CCC(N)=O)C(=O)N[C@H](C(N)=O)[C@@H](C)O)C(C)C)C(=O)O)C(=O)O
EC50 hGCGR (cAMP activity assay) (human glucagon receptor [1]): 40 pM
EC50 hGLP1 (cAMP activity assay) (human GLP-1 receptor [2]): 5000 pM

HSQGTFTSDYSKYLDNKRAQDFVQWLMQT-NH2 [PD37]
EC50 hGCGR (cAMP activity assay) (human glucagon receptor [1]): 160 pM
EC50 hGLP1 (cAMP activity assay) (human GLP-1 receptor [2]): 50 pM

B3: TP559 (peptide)
peptide: H[dS]QGTFTSDK([γGlu-γGlu-Palmitoyl])SKYLDARAAHDFVQWLLNT-NH2
modifications: N-terminus assumed
SMILES: CCCCCCCCCCCCCCCC(=O)N[C@@H](CCC(=O)N[C@@H](CCC(=O)NCCCC[C@H](NC(=O)[C@H](CC(=O)O)NC(=O)[C@H](CO)NC(=O)[C@@H](NC(=O)[C@H](Cc1ccccc1)NC(=O)[C@@H](NC(=O)CNC(=O)[C@H](CCC(N)=O)NC(=O)[C@@H](CO)NC(=O)[C@@H](N)Cc1c[nH]cn1)[C@@H](C)O)[C@@H](C)O)C(=O)N[C@@H](CO)C(=O)N[C@@H](CCCCN)C(=O)N[C@@H](Cc1ccc(O)cc1)C(=O)N[C@@H](CC(C)C)C(=O)N[C@@H](CC(=O)O)C(=O)N[C@@H](C)C(=O)N[C@@H](CCCNC(=N)N)C(=O)N[C@@H](C)C(=O)N[C@@H](C)C(=O)N[C@@H](Cc1c[nH]cn1)C(=O)N[C@@H](CC(=O)O)C(=O)N[C@@H](Cc1ccccc1)C(=O)N[C@H](C(=O)N[C@@H](CCC(N)=O)C(=O)N[C@@H](Cc1c[nH]c2ccccc12)C(=O)N[C@@H](CC(C)C)C(=O)N[C@@H](CC(C)C)C(=O)N[C@@H](CC(N)=O)C(=O)N[C@H](C(N)=O)[C@@H](C)O)C(C)C)C(=O)O)C(=O)O
EC50 hGCGR (cAMP activity assay) (human glucagon receptor [1]): 20 pM
EC50 hGLP1 (cAMP activity assay) (human GLP-1 receptor [2]): 50 pM

HSQGTFFSDYSKYLDSRRAQDFVQWLLET-NH2 [PD58]
EC50 hGCGR (cAMP activity assay) (human glucagon receptor [3]): 30 pM
EC50 hGLP1R (cAMP activity assay) (human GLP-1 receptor [4]): 20 pM

HSQGTFTSDYSKYLDELRAYDFVQWLMNT-NH2 [PD27]
EC50 hGCGR (cAMP activity assay) (human glucagon receptor [3]): 50 pM
EC50 hGLP1R (cAMP activity assay) (human GLP-1 receptor [4]): 30 pM

HSQGTFTSDYSKYLDSLMAQDFVQWLMST-NH2 [PD22]
EC50 hGCGR (cAMP activity assay) (human glucagon receptor [3]): 20 pM
EC50 hGLP1R (cAMP activity assay) (human GLP-1 receptor [4]): 30 pM

HSHGTFTSDYSKYLDSRRAQDFVQWLMTT-NH2 [PD51]
EC50 hGCGR (cAMP activity assay) (human glucagon receptor [3]): 30 pM
EC50 hGLP1R (cAMP activity assay) (human GLP-1 receptor [4]): 20 pM

HSQGTFTSDYSKYLDSIRAQDFVQWLMDT-NH2 [PD36]
EC50 hGCGR (cAMP activity assay) (human glucagon receptor [3]): 40 pM
EC50 hGLP1R (cAMP activity assay) (human GLP-1 receptor [4]): 60 pM

HSQGTFTSDYSKYLDWRRAQDFVQWLQNT-NH2 [PD44]
EC50 hGCGR (cAMP activity assay) (human glucagon receptor [3]): 20 pM
EC50 hGLP1R (cAMP activity assay) (human GLP-1 receptor [4]): 10 pM

HSQGTFTSDYSKYLDWRRAQDFVQWLLNT-NH2 [PD23]
EC50 hGCGR (cAMP activity assay) (human glucagon receptor [3]): 30 pM
EC50 hGLP1R (cAMP activity assay) (human GLP-1 receptor [4]): 50 pM

HSQGTFTSDYSKYLDSRRAQDFVDWLLNA-NH2 [PD48]
EC50 hGCGR (cAMP activity assay) (human glucagon receptor [3]): 70 pM
EC50 hGLP1R (cAMP activity assay) (human GLP-1 receptor [4]): 20 pM

HSQGTFFSDYSHWLDSRRAQDFVQWLMNT-NH2 [PD43]
EC50 hGCGR (cAMP activity assay) (human glucagon receptor [3]): 30 pM
EC50 hGLP1R (cAMP activity assay) (human GLP-1 receptor [4]): 40 pM

HSQGTFTSDYSKYLDSRRAQDFVQWLLDS-NH2 [PD59]
EC50 hGCGR (cAMP activity assay) (human glucagon receptor [3]): 20 pM
EC50 hGLP1R (cAMP activity assay) (human GLP-1 receptor [4]): 10 pM

B4: TP552 (peptide)
peptide: H[dS]QGTFLSDYSKLLDSRAAQDFVQWLLQT-NH2
modifications: N-terminus assumed
SMILES: CC(C)C[C@H](NC(=O)[C@H](CC(C)C)NC(=O)[C@H](CCCCN)NC(=O)[C@H](CO)NC(=O)[C@H](Cc1ccc(O)cc1)NC(=O)[C@H](CC(=O)O)NC(=O)[C@H](CO)NC(=O)[C@H](CC(C)C)NC(=O)[C@H](Cc1ccccc1)NC(=O)[C@@H](NC(=O)CNC(=O)[C@H](CCC(N)=O)NC(=O)[C@@H](CO)NC(=O)[C@@H](N)Cc1c[nH]cn1)[C@@H](C)O)C(=O)N[C@@H](CC(=O)O)C(=O)N[C@@H](CO)C(=O)N[C@@H](CCCNC(=N)N)C(=O)N[C@@H](C)C(=O)N[C@@H](C)C(=O)N[C@@H](CCC(N)=O)C(=O)N[C@@H](CC(=O)O)C(=O)N[C@@H](Cc1ccccc1)C(=O)N[C@H](C(=O)N[C@@H](CCC(N)=O)C(=O)N[C@@H](Cc1c[nH]c2ccccc12)C(=O)N[C@@H](CC(C)C)C(=O)N[C@@H](CC(C)C)C(=O)N[C@@H](CCC(N)=O)C(=O)N[C@H](C(N)=O)[C@@H](C)O)C(C)C
EC50 hGCGR (cAMP activity assay) (human glucagon receptor [1]): 20 pM
EC50 hGLP1 (cAMP activity assay) (human GLP-1 receptor [2]): 5000 pM
